According to publication PMC3507807, “DNA binding specificity of ATAF2, a NAC domain transcription factor targeted for degradation by Tobacco mosaic virus” (BMC Plant Biology, 2012):

Columns and labels:
[1] = biological target: T1, ATAF2 (Arabidopsis thaliana) (UniProt Q9C598); assay: EMSA; conditions: EMSA: 20 mM Tris-HCl pH 8.0, 60 mM KCl, 5 mM MgCl2, 100 ug/ml BSA, 5% glycerol, 1 mM DTT, 0.5 ug poly(dI-dC) in 10 ul, 100-300 fmol probe, 25 C 30 min
T1 sequence: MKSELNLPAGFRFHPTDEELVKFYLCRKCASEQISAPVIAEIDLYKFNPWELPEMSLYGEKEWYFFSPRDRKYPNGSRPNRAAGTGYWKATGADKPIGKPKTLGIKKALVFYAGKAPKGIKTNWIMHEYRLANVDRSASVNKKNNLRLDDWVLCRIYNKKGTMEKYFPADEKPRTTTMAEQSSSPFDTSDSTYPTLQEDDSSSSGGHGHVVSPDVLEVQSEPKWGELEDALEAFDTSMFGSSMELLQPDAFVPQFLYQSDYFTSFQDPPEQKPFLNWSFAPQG

ATAF2 = biological target: T2, ATAF2 (Arabidopsis thaliana, UniProt Q9C598 1-283); assay: EMSA; binding not dramatically reduced; EMSA: 20 mM Tris-HCl pH 8.0, 60 mM KCl, 5 mM MgCl2, 100 ug/ml BSA, 5% glycerol, 1 mM DTT, 0.5 ug poly(dI-dC) in 10 ul, 100-300 fmol probe, 25 C 30 min; 5% native PAGE, 0.5X TBE. Footprint: same binding buffer, 10 fmol probe; conditions: protein: recombinant; tags: N-terminal His6 (pTrcHisA); chain copies: 2; label: 5'-32P
T2 sequence: T1 sequence

[2] = biological target: the molecule itself; assay: SEC; Superdex-200 HR 10/30; ~160 ug purified protein, incubated 20 min at room temperature and run in 25 mM Tris-HCl pH 7.5, 10% glycerol, 500 mM NaCl, 0.5 mM EDTA; fractions checked by SDS-PAGE; mass markers 670, 158, 44 and 17 kDa

Q: For “TCAGAAGAGCAATCAAACCAAAACACATAT (double strand) [M4 (nt 18-19 TT to CC)]”, which binding signal ([1]; stated as 87% reduction) is on record?
A: 13 % of WT

Q: For “TCAGAAGAGCAAGTCCCCTAAAACACATAT (double strand) [C2 (nt 13-18 TCAAAT to GTCCCC)]”, which binding signal ([1]; reduction >85%) is on record?
A: < 15 % of WT

Q: With “TCTTTTTAGCAATCAAATTAAAACACATAT (double strand) [C1 (nt 3-7 AGAAG to TTTTT)]” as the molecule, how does the binding signal ([1]; reduction >85%) read?
A: < 15 % of WT

Q: With “TCAGAAGAGCAATCAAATTAAAGAACATAT (double strand) [M5 (nt 23-24 AC to GA)]” as the molecule, how does the binding signal ([1]; stated as 96% reduction) read?
A: 4 % of WT

Q: Which binding signal ([1]; stated as 91% reduction) does the source give for “TCCAAAGAGCAATCAAATTAAAACACATAT (double strand) [M1 (nt 3-4 AG to CA)]” here?
A: 9 % of WT

Q: With “TCAGAAGAGCAATCAAATTAAAACACATAT (double strand) [30-bp ATAF2 binding sequence (wild type)]” as the molecule, how does the binding signal [1] read?
A: 100 % of WT

Q: “TCAGAAGAGCAATCAAATTAATTTTTTTAT (double strand) [C3 (nt 22-27 AACACA to TTTTTT)]” was tested. Which binding signal ([1]; reduction >85%) did it give?
A: < 15 % of WT

Q: With “TCAGAAGAGCAAGAAAATTAAAACACATAT (double strand) [M3 (nt 13-14 TC to GA)]” as the molecule, how does the binding signal ([1]; stated as 47% reduction) read?
A: 53 % of WT

B1: M6 (dsDNA)
DNA 1: TCAGAAGAGCAATCAAATTAAAACACACCT
DNA 2: AGGTGTGTTTTAATTTGATTGCTCTTCTGA
Q: Does B1 bind (ATAF2)?
A: binds

B2: ATAF2 NAC domain (ATAF2-165, 1 aa to 165 aa) (domain or fragment, Arabidopsis, UniProt Q9C598 1-165, looked up)
chain: MKSELNLPAGFRFHPTDEELVKFYLCRKCASEQISAPVIAEIDLYKFNPWELPEMSLYGEKEWYFFSPRDRKYPNGSRPNRAAGTGYWKATGADKPIGKPKTLGIKKALVFYAGKAPKGIKTNWIMHEYRLANVDRSASVNKKNNLRLDDWVLCRIYNKKGTMEK
notes: ATAF2 (AT5g08790), Arabidopsis thaliana NAC domain transcription factor, truncated version containing only the NAC domain, residues 1-165; source: E. coli BL21 (+), pTrcHisA, purified (Ni-NTA)
Q: For B2, which “stoichiometry N” value [2] is on record?
A: 2

B3: M2 (dsDNA)
DNA 1: TCAGAAGTACAATCAAATTAAAACACATAT
DNA 2: ATATGTGTTTTAATTTGATTGTACTTCTGA
Q: Does B3 bind (ATAF2)?
A: binds
